Test results reported in patent publication US20220177583A1.

Key:
[1] = biological target: human CLDN6 fused to GFP, expressed on engineered HEK293T cells (human) (UniProt P56747); assay: FACS, 293T clone with human CLDN6, 1.5 ug Ab
[2] = biological target: human CLDN6 fused to GFP, expressed on engineered HEK293T cells (human) (UniProt P56747); assay: FACS, 293T clone with human CLDN6, 0.3 ug Ab
[3] = biological target: CLDN3/4 endogenously expressed on LS513 and MCF7 cells; assay: FACS dose curve, labelled mAb, LS513 cells
[4] = biological target: human CLDN6 fused to GFP, expressed on engineered HEK293T cells (human) (UniProt P56747); assay: FACS dose curve, labelled mAb, HEK293T-CLDN6-mGFP cells
[5] = biological target: CLDN3/4 endogenously expressed on LS513 and MCF7 cells; assay: FACS dose curve, labelled mAb, MCF7 cells

Binder | FACS signal [1] | FACS signal [2] | EC50 [3] | EC50 [4] | EC50 [5]
AB3 (antibody, V domains shown) VH: EVKLEESGGGLVQPGGSMKLSCVASGFTFSNYWMNWVRQSPEKGLEWVAQIRLKSDNYATHYAESVKGRFTISRDDSKRSVYLQMNNLRAEDTGTYYCNDGPPSGCWGQGTTLIVSS VL: DIQMTQSPASLSASVGETVTITCRISENIYSYLAWYQQKQGKSPQLLVYNAKILVEGVPSRFSGSGSGTQFSLKINSLQPEDFGNYYCQHHYTVPWTFGGGTKLEIK | – | – | 5000 nM | 604 nM | 5000 nM
AB2 (antibody, V domains shown) VH: EVKLEESGGGLVQPGGSMKLSCVASGFTFSDYWMNWVRQSPEKGLEWVAQIRLKSDNYATHYAESVKGRFTISRDDSKRSVYLQMNNLRAEDTGTYYCNDGPPSGCWGQGTTLIVSS VL: DIQMTQSPASLSASVGETVTITCRISENIYSYLAWYQQKQGKSPQLLVYNAKILVEGVPSRFSGSGSGTQFSLKINSLQPEDFGNYYCQHHYTVPWTFGGGTKLEIK | – | – | 5000 nM | 182 nM | 5000 nM
AB4-10 (antibody, V domains shown) VH: QVQLVQSGAEVKKPGASVKMSCKASGYTFTSYTMHWIRQAPGQGQEWIGYINPSSTYTHYIKKFKDRATLTADTSTSTAYMELSSLRSEDTAVYYCSRGELGGFAYWGQGTLVTVSS VL: DVVMTQSPLSLPVTLGQPASISCRSSQSLVHSDGNTYLNWYQQRPGQSPRLLIYKVSNRFSGVPDRFSGSGSGTDFTLKISRVEAEDVGVYYCSQSTHVPYTFGQGTKLEIK | 77200 | 50800 | – | – | –
AB4-12 (antibody, V domains shown) VH: QVQLVQSGAEVKKPGASVKMSCKASGYTFTSYTMHWIRQAPGQGQEWIGYINPSSTYTHYIKKFKDRATLTADKSTSTAYMELSSLRSEDTAVYYCSRGELGGFAYWGQGTLVTVSS VL: DVVMTQSPLSLPVTLGQPASISCRSSQSLVHSDGNTYLNWYQQRPGQSPRLLIYKVSNRFSGVPDRFSGSGSGTDFTLKISRVEAEDVGVYYCSQSTHVPYTFGQGTKLEIK | 86200 | 71100 | – | – | –
AB4-11 (antibody, V domains shown) VH: QVQLVQSGAEVKKPGASVKMSCKASGYTFTSYTMHWIRQAPGQGLEWIGYINPSSTYTHYIKKFKDRATLTADKSTSTAYMELSSLRSEDTAVYYCSRGELGGFAYWGQGTLVTVSS VL: DVVMTQSPLSLPVTLGQPASISCRSSQSLVHSDGNTYLNWYQQRPGQSPRLLIYKVSNRFSGVPDRFSGSGSGTDFTLKISRVEAEDVGVYYCSQSTHVPYTFGQGTKLEIK | 61200 | 37800 | – | – | –
AB1 (antibody, V domains shown) VH: QVQLQQSAAELARPGASVKMSCKASGYTFTTYTMHWVKQRPGQGLEWIGFINPSSGYTDYNQKFKDRTTLTADKSSSTVYMQLSSLTSEDSAVYYCANGDYYVAYWGQGTLVTVSA VL: QIVLTQSPAIMSASLGERVTMTCTASSSVSSTYFHWYQQKPGSSPKLWIYSTSNLASGVPRRFSGSASGTSYSLTISSMEAEDAATYYCHQYHRSPLTFGAGTKLELK | – | – | 5000 nM | 109 nM | 5000 nM
AB7 (antibody, V domains shown) VH: EVQLQQSGPELVKPGASMKISCKASGYSFTGYTMNWVKQSHGKNLEWIGLINPYNGGTNYNQKFKGKATLTVDKSSSTAYMELLSLTSEDSAVYYCARGVYDYDGFTYWGQGTLVTVSA VL: QIVLTQSPAIMSASLGDRVTMTCTASSSVSSSYLHWYQQKPGSSPKLWIYSTSNLASGVPARFSGSGSGTSYSLTISSMEAEDAATYYCHQYHRSPPTFGSGTKLEIK | – | – | 635 nM | 579 nM | 979 nM
AB4 (antibody, V domains shown) VH: QVQLQQSGAELARPGASVKMSCKASGYTFTSYTMHWIKQRPGQGQEWIGYINPSSTYTHYIKKFKDKATLTADKSSSTAYMQLRSLTSEDSAVYYCSRGELGGFAYWGQGTLVTVSA VL: DVVMTQTPLSLPVSLGDQASISCRSSQSLVHSDGNTYLNWYLQKPGQSPKLLIYKVSNRFSGVPDRFSGSGSGTDFTLKIRRVEAEDLGVYFCSQSTHVPYTFGGGTKLEIK | – | – | 730 nM | 17 nM | 653 nM
AB5 (antibody, V domains shown) VH: EVQLQQSGPELVKPGASVKMSCKASGYIFTHYIMHWVKQKPGQGLEWIGCINPYNDGTKYNEKFKGKATLTSDKSSSTAYMELSSLTSEDSAVYYCARYYGYPYYSMDYWGQGTSVTVSS VL: DVLMTQTPLSLPVSLGDQPSISCRSSQSIVHSNGNTYLDWYLQKPGQSPKLLIYKVSNRFSGVPDRFSGSGSGTDFTLKISRVEAEDLGVYYCFQGSHVPFTFGSGTRLEIK | – | – | 781 nM | 10 nM | 1480 nM
AB6 (antibody, V domains shown) VH: DVQLQESGPGLVKSSQSLSLTCSVTGYSITSGYYWKWIRQFPGNKLEWMGYISYDGGINYNPSLKNRISITRDTSKNQFFLKLNSVTTEDTAKYYCARFGKGAMDYWGQGTSVTVSS VL: AIVMFQSPSSLVVSAGEKVTMSCKSSQSLLNSRTRKNYLAWYQQKPGQSPKLLIYWASTRESGVPDRFTGSGSGTDFTLTISSVQAEDLAVYYCKQSYYLYTFGGGTKLEIK | – | – | 133 nM | 1430 nM | 1140 nM

Next, values leading:

FACS signal [1] | FACS signal [2] | EC50 [3] | EC50 [4] | EC50 [5] | Binder
72000 | 46700 | – | – | – | AB9-chim (antibody, V domains shown) VH: EVQLQQSGPELVKPGASVKMSCKASGYRFTDYNMHWVKQSHGKSLEWIGYINPNNGGTNYNQNFKGKATLTVNKSSSTAYMELRSLTSEDSAAYYCARDYLYFFDCWGQGTTLTVSS VL: DIQMTQSPASQSASLGESVTITCLASQTIGTWLAWYQQKPGKSPQLLIYAAASLADGVPSRFSGSGSGTRFSFKISSLQAEDFVSYYCQQLYSIPRTFGGGTKLEIK
54400 | 32400 | – | – | – | AB18-4 (antibody, V domains shown) VH: QVQLVQSGAEVKKPGASVKVSCKASGYSFTGYNMNWVRQAPGQGLEWMGNIDPYYGGSTYAQKFQGRVTMTVDTSTSTVYMELSSLRSEDTAVYYCARERSGYVFSAMDYWGQGTLVTVSS VL: DIVMTQSPDSLAVSLGERVTMNCKSSQSVLFSSNQKNYLAWYQQKPGQPPKLLIYWASTRESGVPDRFSGSGSGTDFTLTISSVQAEDVAVYYCHQYLSSRTFGQGTKLEIK
58500 | 26900 | – | – | – | AB18-6 (antibody, V domains shown) VH: QVQLVQSGAEVKKPGASVKISCKASGYSFTGYNMNWVRQAPGQGLEWIGNIDPYYGGSTYAQKFQGRATLTVDTSTSTAYMELSSLRSEDTAVYYCARERSGYVFSAMDYWGQGTLVTVSS VL: DIVMTQSPDSLAVSLGERVTMNCKSSQSVLFSSNQKNYLAWYQQKPGQPPKLLIYWASTRESGVPDRFSGSGSGTDFTLTISSVQAEDVAVYYCHQYLSSRTFGQGTKLEIK
2560 | 1290 | – | – | – | AB11-2 (antibody, V domains shown) VH: EVQLVESGGGLVQPGGSLRLSCAASGFTFSSFGMHWVRQAPGKGLEWVAYISSDSRTIYYADSVKGRFTISRDNAKNSLYLQMNSLRAEDTAVYYCARDYGRTYEAYWGQGTLVTVSS VL: DIVMTQSPDSLAVSLGERATINCRASKSVSTSGYSYIHWYQQKPGQPPKLLIYLASNLESGVPDRFSGSGSGTDFTLTISSLQAEDVAVYYCQHSRELPLTFGQGTKLEIK
2360 | 1010 | – | – | – | AB11-3 (antibody, V domains shown) VH: EVQLVESGGGLVQPGGSLRLSCAASGFTFSSFGMHWVRQAPGKGLEWVAYISSDSRTIYYADSVKGRFTISRDNAKNSLYLQMNSLRAEDTAVYYCARDYGRTYEAYWGQGTLVTVSS VL: DIVLTQSPDSLAVSLGERATINCRASKSVSTSGYSYIHWYQQKPGQPPKLLIYLASNLESGVPDRFSGSGSGTDFTLTISSVQAEDVAVYYCQHSRELPLTFGQGTKLELK
135000 | 73800 | – | – | – | AB18-chim (antibody, V domains shown) VH: QVQLKQSGPELEKPGASVKISCKASGYSFTGYNMNWVKQSNGKSLEWIGNIDPYYGGSTYNQKFTGKATLTVDKSSSTAYMQLKSLTSEDSAVYYCARERSGYVFSAMDYWGQGTSVTVSS VL: NIMMTQSPSSLAVSAGEKVTMSCKSSQSVLFSSNQKNYLAWYQQKPGQSPRLLIYWASTRESGVPDRFTGSGSGTDFTLTISNVQAEDLAVYYCHQYLSSRTFGAGTKLELK
24600 | 9500 | – | – | – | AB9-3 (antibody, V domains shown) VH: QVQLVQSGAEVKKPGASVKMSCKASGYRFTDYNMHWVRQAPGQGLEWIGYINPNNGGTNYAQKFQGRATLTVDTSTSTAYMELSSLRSEDTAVYYCARDYLYFFDCWGQGTLLTVSS VL: DIQMTQSPSSLSASVGDRVTITCLASQTIGTWLAWYQQKPGKAPKLLIYAAASLADGVPSRFSGSGSGTDFTFTISSLQPEDFVTYYCQQLYSIPRTFGQGTKLEIK
34300 | 15300 | – | – | – | AB9-4 (antibody, V domains shown) VH: QVQLVQSGAEVKKPGASVKMSCKASGYRFTDYNMHWVRQAPGQGLEWIGYINPNNGGTNYAQKFQGRATLTVDTSTSTAYMELSSLRSEDTAVYYCARDYLYFFDCWGQGTLLTVSS VL: DIQMTQSPSSLSASVGDRVTITCRASQTIGTWLAWYQQKPGKAPKLLIYAAASLADGVPSRFSGSGSGTDFTFTISSLQPEDFVTYYCQQLYSIPRTFGQGTKLEIK
3490 | 1670 | – | – | – | AB11-chim (antibody, V domains shown) VH: DVQLVESGGGLVQPRGSRKLSCAASGFTFSSFGMHWVRQAPEKGLEWVAYISSDSRTIYYADTVKGRFTISRDNPTNTLFLQMTSLRSEDTAMYYCARDYGRTYEAYWGQGTLVTVSA VL: DIVLTQSPASLAVSLGQRATISCRASKSVSTSGYSYIHWYQQKPGQPPKLLIYLASNLESGVPARFSGSGSGTDFTLNIHPVEEEDAATYYCQHSRELPLTFGAGTKLELK
